Source: article doi:10.1101/2024.11.08.622622
Like-named read-outs stand apart in the source and are kept apart here.

Tests used:
[1] = molecular target: His6X-Hsp20KKK (IAI motif 209-211 mutated to KKK) (Ustilago maydis); assay: SEC
[2] = molecular target: Ustilago maydis Hsp20, recombinant His6X-Hsp20 (Ustilago maydis); assay: SEC
[3] = molecular target: Ustilago maydis Hsp20, recombinant His6X-Hsp20 (Ustilago maydis); assay: SEC; remark: listed apart in the source
actin (Alexa 488 tagged) = assay: FRET or BRET

stoichiometry N [1]	stoichiometry N [2]	stoichiometry N [3]	Kd (actin (Alexa 488 tagged)) [nM]	Substance
2				His6X-Hsp20KKK (IAI motif 209-211 mutated to KKK) (natural protein)
	18	2	99.6	Ustilago maydis Hsp20, recombinant His6X-Hsp20 (natural protein)
